Source: patent publication US20140350088
pKd: −log10 of the molar value.

Experiments:
human C5a (Homo sapiens) = biological target: T1, human C5a (Homo sapiens) (UniProt P01031); experiment: SPR; conditions: L-RNA; 37 C, HBS-EP pH 7.4
T1 sequence: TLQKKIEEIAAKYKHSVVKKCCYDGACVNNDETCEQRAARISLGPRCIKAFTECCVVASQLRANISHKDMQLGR

[1] = biological target: T2, human alpha-CGRP (Homo sapiens) (UniProt P06881); experiment: SPR; conditions: L-RNA, 37 C
T2 sequence: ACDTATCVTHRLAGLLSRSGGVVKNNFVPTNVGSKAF

[2] = biological target: biotinylated human glucagon (Homo sapiens) (UniProt P01275); experiment: SPR; conditions: 37 C, HBS-EP pH 7.4
Chain of biotinylated human glucagon (Homo sapiens) (P01275 53-81): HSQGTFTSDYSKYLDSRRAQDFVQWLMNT

[3] = biological target: biotinylated human glucagon (Homo sapiens) (UniProt P01275); experiment: competition; conditions: L-DNA; competitive pull-down, 37 C, 1 mM Mg, 1 mM Ca

Question: With “GCCUGAUGUGGUGGUGAAGGGUUGUUGGGUGUCGACGCACAGGC [NOX-D19001]” as the sequence, how does the pKd (human C5a (Homo sapiens)) read?
Answer: 8.85

Question: How did the pKd ([1]; HBS-EP pH 7.4) turn out when “CCGUGCUGUCGGAGACUACUCGUCGAGUAGAAAUAGGUCCCCUCCCACGG [226-F2-001]” was run?
Answer: 8.59

Question: “ACTCGAGAGGAAAGGTTGGTAAAGGTTCGGTTGGATTCACTCGAGT [259-H6-002]” was tested. Which pKd ([2]; L-DNA) did it give?
Answer: 7.96

Question: How did the pKd ([1]; dC at 44, HBS-EP pH 7.4) turn out when “CCGUGCUGUCGGAGACUACUCGUCGAGUAGAAAUAGGUCCCCUCCCACGG [226-F2-001-D44]” was run?
Answer: 9.28

Question: With “CCGUGCUGUCGGAGACUACUCGUCGAGUAGAAAUAGGUCCCCUCCCACGG [226-F2-001-D41]” as the sequence, how does the pKd ([1]; dC at 41, HBS-EP pH 7.4) read?
Answer: 9.26

Question: With “GCAGTGGGGAAATGGGAGGGCTAGGTGGAAGGAATCTGAGCTACTGC [257-E1-001]” as the sequence, how does the pKd [3] read?
Answer: 6.73

Question: How did the pKd ([2]; L-RNA) turn out when “CAGACGUGUGUGGGUAGAUGCACCUGCGAUUCGCUAAAAAGUGCCACACGUCUG [NOX-G11stabi2]” was run?
Answer: 7.17

Question: How did the pKd ([1]; dC at 41 and 44, 13-fold improvement over parent) turn out when “CCGUGCUGUCGGAGACUACUCGUCGAGUAGAAAUAGGUCCCCUCCCACGG [226-F2-001-D41/D44]” was run?
Answer: 9.70
